Results on 38 sequences are retold here after the supplement of paper PMC7877785.

± gives the uncertainty stated by the source.

The nature of this data set: self-splicing fitness, log relative to wild type (ln ratio); higher = more splicing; Tetrahymena group I intron in knt gene, E. coli kanamycin selection, DiMSum; sequences stand for … in CUCUCU…GGAGGGAAAAGUUAUCAGGCAUGCACCUGGUAGCUAGUCUUUAAACCAAUAGAUUGCAUCGGUUUAAAAGGCAAGACCGUCAAAUUGCGGGAAAGGGGUCAACAGCCGUUCAGUACCAAGUCUCAGGGGAAACUUUGAGAUGGCCUUGCAAAGGGUAUGGUAAUAAGCUGACGGACAUGGUCCUAACCACGCAGCCAAGUCCUAAGUCAACAGAUCUUCUGUUGAUAUGGAUGCAGUUCACAGACUAAAUGUCGGUCGGGGAAGAUGUAUUCUUCUCAUAAGAUAUAGUCGGACCUCUCCUUAAUGGGAGCUAGCGGAUGAAGUGAUGCAACACUGGAGCCGCUGGGAACUAAUUUGUAUGCGAAAGUAUAUUGAUUAGUUUUGGAGUACUCGUGGUCG
The method, boiled down: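 A randomised library covering all eight P1ex-region intron nucleotides was built with the intron in the knt kanamycin-resistance gene on pET-22b(+) and held in E. coli BL21(DE3). Cells were grown overnight at 37°C or 30°C on LB agar, with or without 25 μg/mL kanamycin, plus 100 μg/mL carbenicillin, 50 μM IPTG and 0.2% rhamnose, and pooled colonies were amplicon-sequenced on an Illumina HiSeq 2500. DiMSum fitness is the error-weighted combination of wild-type-normalised replicate fold changes, kanamycin versus none.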

In the case of GGGAAGCAAUAUUACGACAU, the “self-splicing fitness (ln)” value runs as follows: (30 °C) -0.662 ± 0.015; (37 °C) -0.341 ± 0.034.

On to UACCAGCAAUAUUACGUAAU, for which the “self-splicing fitness (ln)” value (30 °C) is -2.56 ± 0.097 and the “self-splicing fitness (ln)” value (37 °C) was -1.06 ± 0.096.

In the case of UCUAAGCAAUAUUACGUCAU, the “self-splicing fitness (ln)” value (30 °C) is -3.45 ± 0.2 and the “self-splicing fitness (ln)” value (37 °C) is -2.4 ± 0.16.

In the case of UCCAAGCAAUAUUACGAACC, the “self-splicing fitness (ln)” value (30 °C) is -1.65 ± 0.25.

Consider AUCUAGCAAUAUUACGGGGA, for which the “self-splicing fitness (ln)” value by setting is: (30 °C) -1.48 ± 0.073; (37 °C) -1.03 ± 0.087.

In the case of AACUAGCAAUAUUACGACGA, the “self-splicing fitness (ln)” value is -0.137 ± 0.066 (30 °C) and -0.576 ± 0.074 (37 °C).

As to AUACAGCAAUAUUACGUGCC, the “self-splicing fitness (ln)” value reads like this: (30 °C) -1.16 ± 0.078; (37 °C) -0.689 ± 0.11.

Consider UUGGAGCAAUAUUACGAGGU, for which, for the setting “30 °C”, the “self-splicing fitness (ln)” value is -2.02 ± 0.47.

Take UCUCAGCAAUAUUACGGAUU: the “self-splicing fitness (ln)” value by setting is: (30 °C) -1.73 ± 0.097; (37 °C) -1.15 ± 0.11.

For AAUUAGCAAUAUUACGUCUG, the “self-splicing fitness (ln)” value is -1.72 ± 0.15 (30 °C) and -0.251 ± 0.17 (37 °C).

Turning to ACGGAGCAAUAUUACGCCGA, the “self-splicing fitness (ln)” value is, setting by setting: (30 °C) -1.94 ± 0.25; (37 °C) -1.49 ± 0.19.

For UUCCAGCAAUAUUACGAUGU, the “self-splicing fitness (ln)” value (30 °C) is -3.24 ± 0.12 and the “self-splicing fitness (ln)” value (37 °C) was -2.22 ± 0.16.

Turning to GUGUAGCAAUAUUACGUCCG, the “self-splicing fitness (ln)” value is -3.16 ± 0.33 (30 °C) and -0.647 ± 0.22 (37 °C).

Consider GUGAAGCAAUAUUACGCAGG, for which the “self-splicing fitness (ln)” value (30 °C) is -1.88 ± 0.1 and the “self-splicing fitness (ln)” value (37 °C) was -0.654 ± 0.1.

Take AUUGAGCAAUAUUACGGUGU: the “self-splicing fitness (ln)” value was -1.92 ± 0.15 (30 °C) and -2.31 ± 0.37 (37 °C).

AGUGAGCAAUAUUACGGGAG: the “self-splicing fitness (ln)” value is -5.04 ± 0.41 (30 °C) and -2.38 ± 0.14 (37 °C).

Take UCUAAGCAAUAUUACGACUA: the “self-splicing fitness (ln)” value by setting is: (30 °C) -3.07 ± 0.25; (37 °C) -0.59 ± 0.15.

Take UGCAAGCAAUAUUACGCCGU: the “self-splicing fitness (ln)” value by setting is: (30 °C) -2.38 ± 0.36; (37 °C) -1.81 ± 0.25.

Turning to GGGUAGCAAUAUUACGAUAC, the “self-splicing fitness (ln)” value (30 °C) is -1.98 ± 0.22 and the “self-splicing fitness (ln)” value (37 °C) is -0.628 ± 0.24.

Turning to AGAAAGCAAUAUUACGCGAG, the “self-splicing fitness (ln)” value was -1.28 ± 0.11 (30 °C) and -0.453 ± 0.13 (37 °C).

Regarding CACAAGCAAUAUUACGUGUU, the “self-splicing fitness (ln)” value is -3.95 ± 0.12 (30 °C) and -3.28 ± 0.13 (37 °C).

For GUAAAGCAAUAUUACGGACA, the “self-splicing fitness (ln)” value (30 °C) is -0.403 ± 0.085 and the “self-splicing fitness (ln)” value (37 °C) is 0.623 ± 0.12.

Turning to GCCGAGCAAUAUUACGUUCA, the “self-splicing fitness (ln)” value (30 °C) is -1.03 ± 0.11 and the “self-splicing fitness (ln)” value (37 °C) was -0.854 ± 0.14.

Turning to AAUAAGCAAUAUUACGUUCC, the “self-splicing fitness (ln)” value is -1.96 ± 0.14 (30 °C) and -1.48 ± 0.18 (37 °C).

GACAAGCAAUAUUACGACUA: the “self-splicing fitness (ln)” value was -0.408 ± 0.058 (30 °C) and 0.117 ± 0.066 (37 °C).

As for AGGUAGCAAUAUUACGGGGG, the “self-splicing fitness (ln)” value (30 °C) was -3.715 ± 0.031 and the “self-splicing fitness (ln)” value (37 °C) was -2.94 ± 0.044.

As to CCGUAGCAAUAUUACGUUAU, the “self-splicing fitness (ln)” value by setting is: (30 °C) -2.06 ± 0.12; (37 °C) -2.35 ± 0.23.

As to AGAAAGCAAUAUUACGUGUU, the “self-splicing fitness (ln)” value is, setting by setting: (30 °C) -3.31 ± 0.15; (37 °C) -1.99 ± 0.12.

Regarding GGCUAGCAAUAUUACGAUAU, the “self-splicing fitness (ln)” value is, setting by setting: (30 °C) -1.79 ± 0.17; (37 °C) -1.84 ± 0.16.

For the sequence AAUAAGCAAUAUUACGUCUG, the “self-splicing fitness (ln)” value (30 °C) was -1.59 ± 0.11 and the “self-splicing fitness (ln)” value (37 °C) is -0.973 ± 0.11.

For the sequence UAAGAGCAAUAUUACGAUUA, the “self-splicing fitness (ln)” value is, setting by setting: (30 °C) -0.804 ± 0.1; (37 °C) 0.2 ± 0.1.

AAUAAGCAAUAUUACGCUAA: the “self-splicing fitness (ln)” value reads like this: (30 °C) -2.46 ± 0.16; (37 °C) -0.891 ± 0.13.

With AGACAGCAAUAUUACGGGUG, the “self-splicing fitness (ln)” value (30 °C) was -3.07 ± 0.09 and the “self-splicing fitness (ln)” value (37 °C) was -2.37 ± 0.1.

As to ACCGAGCAAUAUUACGAGUG, the “self-splicing fitness (ln)” value (30 °C) was -2.82 ± 0.11 and the “self-splicing fitness (ln)” value (37 °C) was -1.49 ± 0.094.

For GGUCAGCAAUAUUACGCCCU, the “self-splicing fitness (ln)” value by setting is: (30 °C) -0.704 ± 0.14; (37 °C) 0.198 ± 0.17.

As for CCAUAGCAAUAUUACGCAUC, the “self-splicing fitness (ln)” value is -3.39 ± 0.27 (30 °C) and -2.31 ± 0.3 (37 °C).

Regarding UAGUAGCAAUAUUACGGUGG, the “self-splicing fitness (ln)” value by setting is: (30 °C) -3.44 ± 0.27; (37 °C) -2.09 ± 0.2.

Turning to CGUUAGCAAUAUUACGAACA, the “self-splicing fitness (ln)” value reads like this: (30 °C) -0.595 ± 0.16; (37 °C) 0.0081 ± 0.16.
